Assay results as given in patent US20120087858A1 (AbbVie / Abbott, published 2012).

T1: Recombinant Human SOST (human, UniProt Q9BQB4 24-213)
T1 construct: Biacore reagent from R&D Systems; the Wnt-1/luciferase assay used Human Sclerostin (Abbott PR-1261069); also called Sclerostin; Human Sclerostin
T1 sequence (looked up): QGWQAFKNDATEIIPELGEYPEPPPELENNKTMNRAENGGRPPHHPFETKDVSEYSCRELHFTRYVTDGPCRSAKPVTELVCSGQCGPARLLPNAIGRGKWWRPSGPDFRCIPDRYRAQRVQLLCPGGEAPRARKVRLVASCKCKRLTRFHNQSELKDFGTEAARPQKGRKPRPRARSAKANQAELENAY


Assays:
[1] = molecular target: T2, Recombinant Human TNF-α/TNFSF1A (human, UniProt P01375 77-233); assay: cell-based or functional assay
[2] = molecular target: T2, Recombinant Human TNF-α/TNFSF1A; assay: Biacore SPR
Protocol: (§1) The BIACORE assay (Biacore, Inc, Piscataway, N.J.) determines the affinity of antibodies or DVD-Ig with kinetic measurements of on-rate and off-rate constants. Binding of antibodies or DVD-Ig to a target antigen (for example, a purified recombinant target antigen) is determined by surface plasmon resonance-based measurements with a Biacore® 1000 or 3000 instrument (Biacore® AB, Uppsala, Sweden) using running HBS-EP (10 mM HEPES [pH 7.4], 150 mM NaCl, 3 mM EDTA, and 0.005% surfactant P20) at 25° C. All chemicals are obtained from Biacore® AB (Uppsala, Sweden) or otherwise from a different source as described in the text. For example, approximately 5000 RU of goat anti-mouse IgG, (Fcγ), fragment specific polyclonal antibody (Pierce Biotechnology Inc, Rockford, Ill.) diluted in 10 mM sodium acetate (pH 4.5) is directly immobilized across a CMS research grade biosensor chip using a standard amine coupling kit according to manufacturer's instructions and procedures at 25 μg/ml. Unreacted moieties on the biosensor surface are blocked with ethanolamine. Modified carboxymethyl dextran surface in flowcell 2 and 4 is used as a reaction surface. Unmodified carboxymethyl dextran without goat anti-mouse IgG in flow cell 1 and 3 is used as the reference surface. For kinetic analysis, rate equations derived from the 1:1 Langmuir binding model are fitted simultaneously to association and dissociation phases of all eight injections (using global fit analysis) with the use of Biaevaluation 4.0.1 software. Purified antibodies or DVD-Ig are diluted in HEPES-buffered saline for capture across goat anti-mouse IgG specific reaction surfaces. Antibodies or DVD-Ig to be captured as a ligand (25 μg/ml) are injected over reaction matrices at a flow rate of 5 μl/min. The association and dissociation rate constants, kₒₙ (M⁻¹s⁻) and koff(s⁻¹) are determined under a continuous flow rate of 25 μl/min. Rate constants are derived by making kinetic binding measurements at different antigen concentrations ranging from 10-200 nM. The equilibrium dissociation constant (M) of the reaction between antibodies or DVD-Igs and the target antigen is then calculated from the kinetic rate constants by the following formula: KD=koff/kₒₙ. Binding is recorded as a function of time and kinetic rate constants are calculated.

[3] = molecular target: T1, Recombinant Human SOST; assay: Biacore SPR
Protocol: as §1

T2 sequence (P01375 77-233 limits assumed): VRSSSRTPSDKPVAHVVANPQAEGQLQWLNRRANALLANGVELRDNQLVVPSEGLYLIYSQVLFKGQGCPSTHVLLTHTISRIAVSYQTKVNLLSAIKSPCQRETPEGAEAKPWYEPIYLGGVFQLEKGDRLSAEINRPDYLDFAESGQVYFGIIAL

Binder | TNFα Neutralization Assay EC50 (L929 cells) [1] [nM] | Kd [2] [nM] | koff [2] [s⁻¹] | kon [2] [M⁻¹ s⁻¹] | also measured
DVD1496 (bispecific antibody, human IgG1, kappa) heavy: not shown light: DVQMIQSPSSLSASLGDIVTMTCQASQGTSINLNWFQQKPGKAPKLLIYGSSNLEDGVPSRFSGSRYGTDFTLTISSLEDEDLATYFCLQHSYLPYTFGGGTKLEIKRTVAAPDIVMTQSHKFMSTTVGDRVSITCKASQAVSSAVAWYQQKPGQSPKLLIYWASTRHTGVPDRFTGSGSVTDFTLTIHNLQAEDLALYYCQQHYSTPFTFGSGTKLEIKRTVAAPSVFIFPPSDEQLKSGTASVVCLLNNFYPREAKVQWKVDNALQSGNSQESVTEQDSKDSTYSLSSTLTLSKADYEKHKVYACEVTHQGLSSPVTKSFNRGEC | 0.085 |  |  |  | 
DVD1507 (bispecific antibody, human IgG1, kappa) heavy: not shown light: DIVMTQSHKFMSTTVGDRVSITCKASQAVSSAVAWYQQKPGQSPKLLIYWASTRHTGVPDRFTGSGSVTDFTLTIHNLQAEDLALYYCQQHYSTPFTFGSGTKLEIKRTVAAPDVVMTQTPLSLPVSLGDQASISCTSGQSLVHINGNTYLHWYLQKPGQSPKLLIYKVSNLFSGVPDRFSGSGSGTDFTLKISRVEAEDLGVYFCSQSTHFPFTFGTGTKLEIKRTVAAPSVFIFPPSDEQLKSGTASVVCLLNNFYPREAKVQWKVDNALQSGNSQESVTEQDSKDSTYSLSSTLTLSKADYEKHKVYACEVTHQGLSSPVTKSFNRGEC | 0.133 |  |  |  | 
AB022 (antibody, V domains shown, Parent antibody; also called SOST parent antibody) VH: EVQLQQSGPELVTPGASVKISCKASGYTFTDHYMSWVKQSHGKSLEWIGDINPYSGETTYNQKFKGTATLTVDKSSSIAYMEIRGLTSEDSAVYYCARDDYDASPFAYWGQGTLVTVSA VL: DVQMIQSPSSLSASLGDIVTMTCQASQGTSINLNWFQQKPGKAPKLLIYGSSNLEDGVPSRFSGSRYGTDFTLTISSLEDEDLATYFCLQHSYLPYTFGGGTKLEIKR |  |  |  |  | Kd [3]: 0.0408 nM; koff [3]: 0.000396 s⁻¹; kon [3]: 9.68e+06 M⁻¹ s⁻¹
AB213 (antibody, V domains shown, Parent antibody) VH: QVQLKESGPGLVAPSQSLSITCTVSGFSLTDYGVNWVRQPPGKGLEWLGMIWGDGSTDYDSTLKSRLSISKDNSKSQIFLKMNSLQTDDTARYYCAREWHHGPVAYWGQGTLVTVSA VL: DIVMTQSHKFMSTTVGDRVSITCKASQAVSSAVAWYQQKPGQSPKLLIYWASTRHTGVPDRFTGSGSVTDFTLTIHNLQAEDLALYYCQQHYSTPFTFGSGTKLEIKR | 0.124 | 0.0335 | 0.000108 | 3.23e+06 | 
DVD1516 (bispecific antibody, human IgG1, kappa) heavy: not shown light: DVLMTQTPLSLPVTPGEPASISCTSSQNIVHSNGNTYLEWYLQKPGQSPQLLIYKVSNRFSGVPDRFSGSGSGTDFTLKISRVEAEDVGVYYCFQVSHVPYTFGGGTKVEIKRTVAAPDIQMTQSPSSLSASVGDRVTITCRASQGIRIDLGWYQQKPGKAPKRLIYAASTLQSGVPSRFSGSGSGTEFIFTISSLQPEDFASYYCLQHKSYPLTFGGGTKVEIKRTVAAPSVFIFPPSDEQLKSGTASVVCLLNNFYPREAKVQWKVDNALQSGNSQESVTEQDSKDSTYSLSSTLTLSKADYEKHKVYACEVTHQGLSSPVTKSFNRGEC | 8.71 |  |  |  | 
AB217 (antibody, V domains shown, Parent antibody) VH: QVQLVESGGGVVQPGRSLRLSCAASGFTFSSYDMHWVRQAPGKGLEWVAVIWSDGSIKYYADSVKGRFTISRDNSKNTLYLQMNSLRAEDTAVYYCAREVESAMGGFYYNGMDVWGQGTTVTVSS VL: DIQMTQSPSSLSASVGDRVTITCRASQGIRIDLGWYQQKPGKAPKRLIYAASTLQSGVPSRFSGSGSGTEFIFTISSLQPEDFASYYCLQHKSYPLTFGGGTKVEIKR | 0.0762 | 0.0272 | 5.04e-05 | 1.85e+06 | 
DVD1522 (bispecific antibody, human IgG1, kappa) heavy: not shown light: DVVMTQTPLSLPVSLGDQASISCTSGQSLVHINGNTYLHWYLQKPGQSPKLLIYKVSNLFSGVPDRFSGSGSGTDFTLKISRVEAEDLGVYFCSQSTHFPFTFGTGTKLEIKRTVAAPDIQMTQSPSSLSASVGDRVTITCRASQGIRIDLGWYQQKPGKAPKRLIYAASTLQSGVPSRFSGSGSGTEFIFTISSLQPEDFASYYCLQHKSYPLTFGGGTKVEIKRTVAAPSVFIFPPSDEQLKSGTASVVCLLNNFYPREAKVQWKVDNALQSGNSQESVTEQDSKDSTYSLSSTLTLSKADYEKHKVYACEVTHQGLSSPVTKSFNRGEC | 4.18 |  |  |  | 
DVD1518 (bispecific antibody, human IgG1, kappa) heavy: not shown light: DVQMIQSPSSLSASLGDIVTMTCQASQGTSINLNWFQQKPGKAPKLLIYGSSNLEDGVPSRFSGSRYGTDFTLTISSLEDEDLATYFCLQHSYLPYTFGGGTKLEIKRTVAAPDIQMTQSPSSLSASVGDRVTITCRASQGIRIDLGWYQQKPGKAPKRLIYAASTLQSGVPSRFSGSGSGTEFIFTISSLQPEDFASYYCLQHKSYPLTFGGGTKVEIKRTVAAPSVFIFPPSDEQLKSGTASVVCLLNNFYPREAKVQWKVDNALQSGNSQESVTEQDSKDSTYSLSSTLTLSKADYEKHKVYACEVTHQGLSSPVTKSFNRGEC | 0.89 |  |  |  | 
DVD1475 (bispecific antibody, human IgG1, kappa, DVD-Ig; linker set 2; also called DVD1475H; DVD1475L) heavy: not shown light: DIQMTQSPSSLSASVGDRVTITCRASQGIRIDLGWYQQKPGKAPKRLIYAASTLQSGVPSRFSGSGSGTEFIFTISSLQPEDFASYYCLQHKSYPLTFGGGTKVEIKRTVAAPSVFIFPPDVQMIQSPSSLSASLGDIVTMTCQASQGTSINLNWFQQKPGKAPKLLIYGSSNLEDGVPSRFSGSRYGTDFTLTISSLEDEDLATYFCLQHSYLPYTFGGGTKLEIKRTVAAPSVFIFPPSDEQLKSGTASVVCLLNNFYPREAKVQWKVDNALQSGNSQESVTEQDSKDSTYSLSSTLTLSKADYEKHKVYACEVTHQGLSSPVTKSFNRGEC | 0.002 | 0.013 | 3.6e-05 | 2.7e+06 | Kd [3]: 0.9 nM; koff [3]: 0.00073 s⁻¹; kon [3]: 810000 M⁻¹ s⁻¹

Further lines, with some results ahead:

TNFα Neutralization Assay EC50 (L929 cells) [1] [nM] | Kd [2] [nM] | koff [2] [s⁻¹] | kon [2] [M⁻¹ s⁻¹] | Binder | also measured
1.39 |  |  |  | DVD1448 (bispecific antibody, human IgG1, kappa) heavy: not shown light: DVLMTQTPLSLPVTPGEPASISCTSSQNIVHSNGNTYLEWYLQKPGQSPQLLIYKVSNRFSGVPDRFSGSGSGTDFTLKISRVEAEDVGVYYCFQVSHVPYTFGGGTKVEIKRTVAAPSVFIFPPDIVMTQSHKFMSTTVGDRVSITCKASQAVSSAVAWYQQKPGQSPKLLIYWASTRHTGVPDRFTGSGSVTDFTLTIHNLQAEDLALYYCQQHYSTPFTFGSGTKLEIKRTVAAPSVFIFPPSDEQLKSGTASVVCLLNNFYPREAKVQWKVDNALQSGNSQESVTEQDSKDSTYSLSSTLTLSKADYEKHKVYACEVTHQGLSSPVTKSFNRGEC | 
0.273 |  |  |  | DVD1474 (bispecific antibody, human IgG1, kappa) heavy: not shown light: DVLMTQTPLSLPVTPGEPASISCTSSQNIVHSNGNTYLEWYLQKPGQSPQLLIYKVSNRFSGVPDRFSGSGSGTDFTLKISRVEAEDVGVYYCFQVSHVPYTFGGGTKVEIKRTVAAPSVFIFPPDIQMTQSPSSLSASVGDRVTITCRASQGIRIDLGWYQQKPGKAPKRLIYAASTLQSGVPSRFSGSGSGTEFIFTISSLQPEDFASYYCLQHKSYPLTFGGGTKVEIKRTVAAPSVFIFPPSDEQLKSGTASVVCLLNNFYPREAKVQWKVDNALQSGNSQESVTEQDSKDSTYSLSSTLTLSKADYEKHKVYACEVTHQGLSSPVTKSFNRGEC | 
0.045 | 0.0288 | 5.15e-05 | 1.79e+06 | AB218 (antibody, V domains shown, Parent antibody) VH: EVQLVESGGGLIQPGGSLRLSCAASGFTVSRNYMSWVRQAPGKGLEWVSVIYSGDRTYYADSVKGRFTISRDNSKNTLYLQMNSLRAEDTAVYYCARGEGGFDYWGQGTLVTVSS VL: EIVMTQSPATLSVSPGERATLSCRASQSVSSNLAWYQQKPGQAPRLLIHGASIRATGLPARFSGSGSGTEFTLTISSLQSEDFAVYYCQQYNYWWTFGQGTKVEIKR | 
0.139 |  |  |  | DVD1476 (bispecific antibody, human IgG1, kappa) heavy: not shown light: DVQMIQSPSSLSASLGDIVTMTCQASQGTSINLNWFQQKPGKAPKLLIYGSSNLEDGVPSRFSGSRYGTDFTLTISSLEDEDLATYFCLQHSYLPYTFGGGTKLEIKRTVAAPSVFIFPPDIQMTQSPSSLSASVGDRVTITCRASQGIRIDLGWYQQKPGKAPKRLIYAASTLQSGVPSRFSGSGSGTEFIFTISSLQPEDFASYYCLQHKSYPLTFGGGTKVEIKRTVAAPSVFIFPPSDEQLKSGTASVVCLLNNFYPREAKVQWKVDNALQSGNSQESVTEQDSKDSTYSLSSTLTLSKADYEKHKVYACEVTHQGLSSPVTKSFNRGEC | 
